{"source": "patent US20240167082A1", "molecular_target": "CD3 (cell surface marker on Jurkat cells and on Ramos cells) (human) (UniProt P07766)", "sequence (P07766 23-207)": "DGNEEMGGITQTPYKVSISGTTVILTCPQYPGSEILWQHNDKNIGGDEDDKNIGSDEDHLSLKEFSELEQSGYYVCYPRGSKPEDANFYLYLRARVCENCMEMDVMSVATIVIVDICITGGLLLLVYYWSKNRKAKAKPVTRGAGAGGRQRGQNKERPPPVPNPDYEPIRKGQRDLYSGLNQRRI", "assay": "cell-based or functional assay"}
{"substance": "TotalSeqB anti-CD3 antibody (Biolegend cat no. 300477; anti-human CD3-totalseqB Ab, clone UCHT1)", "values": [{"measurement": "share of drops with labelled cells that cross the Cy5 fluorescence threshold", "value": "> 95", "unit": "%"}, {"measurement": "time at which drops cross the Cy5 fluorescence threshold", "value": "20 to 50", "unit": "min"}, {"measurement": "time at which drops cross the Cy5 fluorescence threshold, Jurkat cells in droplets", "value": "20 to 38", "unit": "min"}, {"measurement": "time to Cy5 fluorescence in drops with Jurkat cells from a mixed Jurkat and mouse pool", "value": 20, "unit": "min"}]}
